T1: human TREM2 (human, UniProt Q9NZC2 19-230)
T1 sequence: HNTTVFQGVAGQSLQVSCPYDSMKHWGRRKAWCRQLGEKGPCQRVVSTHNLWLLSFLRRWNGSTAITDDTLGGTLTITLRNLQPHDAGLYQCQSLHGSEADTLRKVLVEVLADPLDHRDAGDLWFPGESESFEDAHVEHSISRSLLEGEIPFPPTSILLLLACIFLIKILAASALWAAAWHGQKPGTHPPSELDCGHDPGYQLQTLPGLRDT

T2: mouse TREM2 (mouse, UniProt Q99NH8 19-227)
T2 construct: whole, on cells
T2 sequence (looked up): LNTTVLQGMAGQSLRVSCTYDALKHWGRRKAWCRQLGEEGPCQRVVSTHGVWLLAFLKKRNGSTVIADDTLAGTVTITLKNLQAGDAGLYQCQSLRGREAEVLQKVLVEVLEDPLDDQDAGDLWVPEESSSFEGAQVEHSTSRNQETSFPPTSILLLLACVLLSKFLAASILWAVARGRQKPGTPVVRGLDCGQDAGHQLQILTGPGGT

T3: cynomolgus TREM2 (cynomolgus, UniProt A0A2K5UY34 49-260)
T3 construct: also called cynoTREM2; cTREM2
T3 sequence: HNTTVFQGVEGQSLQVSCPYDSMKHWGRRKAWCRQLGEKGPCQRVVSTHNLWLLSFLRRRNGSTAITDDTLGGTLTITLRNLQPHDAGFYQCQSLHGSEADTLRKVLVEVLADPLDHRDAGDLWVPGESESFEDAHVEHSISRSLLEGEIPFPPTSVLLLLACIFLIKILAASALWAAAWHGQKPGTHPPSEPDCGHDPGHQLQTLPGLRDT


Tests used:
[1] = target: T1, human TREM2; test: cell-based or functional assay
[2] = target: T2, mouse TREM2; test: MFI on CT26 cells over-expressing mouse TREM2 and DAP12
Experimental: (§1) Cross-reactivity to mouse TREM2 was assessed using CT26 cells over-expressing mouse TREM2 and DAP12 (Table 23). Eight anti-TREM2 antibodies and both benchmark antibodies were considered cross-reactive to mouse TREM2 (MFI higher than isotype control and fold change of CT26-TREM2 over the CT26 Empty Vector higher than 5). The remaining anti-TREM2 antibodies were considered as being low to not cross-reactive (fold change less than 5). EOS006171 was not tested due to clear non-cross-reactivity preliminary data by octet (data not shown).

[3] = target: T2, mouse TREM2; test: MFI on CT26 cells over-expressing mouse TREM2 and DAP12 vs CT26 empty vector
Experimental: as §1

[4] = target: T1, human TREM2; test: cell-based or functional assay; remark: listed apart in the source
[5] = target: T1, human TREM2; test: flow cytometry, THP-1 WT cells, 10 ug/ml
Experimental: (§2) In order to test specificity of selected antibodies to TREM2, binding was tested by flow cytometry on THP-1 TREM2 KO (clone, produced using CRISPR technology in house) and on THP-1 WT. Cells were incubated with selected anti-TREM2 antibodies (final concentration of 10 μg/ml) for 30 min at 4° C. After washing, bound antibodies were detected with a secondary anti-human IgG Fc PE-labelled for 30 min at 4° C. Fluorescence intensity was measured by flow cytometry.

[6] = target: T3, cynomolgus TREM2; test: MFI on CHO cells over-expressing cynoTREM2-DAP12 vs CHO empty vector
Experimental: (§3) Cross-reactivity of anti-TREM2 antibodies to cynomolgus TREM2 (cynoTREM2) was assessed using CHO over-expressing cynoTREM2-DAP12 (Table 22). Benchmark antibodies, AB52 and PN-37012, were examined for comparison.

[7] = target: T3, cynomolgus TREM2; test: MFI on CHO cells over-expressing cynoTREM2-DAP12
Experimental: as §3

[8] = target: T1, human TREM2; test: flow cytometry, THP-1 WT vs THP-1 TREM2 KO cells, 10 ug/ml
Experimental: as §2

[9] = target: T1, human TREM2; test: flow cytometry, M2a-like macrophages
Experimental: (§4) M2a-like macrophages were produced in vitro from monocytes of healthy donors. Briefly, after PBMCs isolation from peripheral blood using Lymphoprep™ gradient, CD14+ cells were purified and seeded in presence of MCSF 50 ng/ml for 6 days. Macrophages were then cultured with IL-13 and IL-4 at a concentration of 20 ng/ml for two additional days and then used for a cell-based binding assay.
(§5) M2a-like macrophages were incubated with anti-TREM2 antibodies (dose-response curve with 11 concentrations from 10 μg/ml to 0.0001 μg/ml) for 30 min at 4° C. After washing, bound antibodies were detected with a secondary anti-human IgG Fc PE-labelled for 30 min at 4° C. Fluorescence intensity was measured by flow cytometry. Equilibrium dissociation constant (kD) was then calculated for each antibody using median MFI normalized over isotype control.

[10] = target: T1, human TREM2; test: flow cytometry, competition with LDL-Alexafluor-488 on CHO cells overexpressing human TREM2/DAP12
Experimental: Exemplary anti-TREM2 antibodies were tested in order to characterize their ability to enter in competition with TREM2 ligand, LDL, on CHO overexpressing human TREM2/DAP12. Antibodies (dose response curves from 66.65 nM to 0.07 nM) were incubated for 30 min with cells in a soluble fashion, followed by an incubation with LDL coupled with Alexafluor-488 (at 1 μg/mL final) for 30 min. Finally, after 2 washes, cells were acquired on flow cytometer. The median MFI of Alexafluor-488 was used to plot the graphs. Benchmark antibody MOR044746 was used as positive control.

[11] = target: T1, human TREM2; test: flow cytometry, M2a-like macrophages, dose-response
Experimental: as §4, §5

Binder | Fold over isotype control at 66 nM [1] | pSYK/TotSYK EC50 (nM) [1] | Binding to CT26-TREM2 MFI [2] | MFI Fold change (CT26-TREM2 over CT26-EV) [3] | Stabilization ratio (Mean of 2 replicates) [4] | Fold over isotype control THP1 WT [5] | MFI Fold change (CHO-cTREM2 over CHO-EV) [6] | Binding to CHO-cTREM2 MFI [7] | MFI Fold change (THP-1 WT over THP-1 TREM2 KO) [8] | Fold over isotype [9] | IC50 [10] | Kd [11]
6E7 (antibody, V domains shown) VH: EVQLVQSGAEVKKPGESLKISCKGSGYSFTSYWIAWVRQMPGKGLEWMGIIYPGDSDTRYSPSFQGQVTISADKSISTAYLQWSSLKASDTAMYFCARQRTFYYDSSDYFDYWGQGTLVTVSS VL: DIQMTQSPSSVSASVGDRVTITCRASQGISSWLAWYQQKPGKAPKLLIYAASSLQNGVPSRFSGSGSGTDFTLTISSLQPEDFATYFCQQADSFPRTFGQGTKLEIK | 1.93 fold | 1.29 nM | – | – | – | – | – | – | – | – | – | –
PN-37012 (antibody, V domains shown, benchmark anti-TREM2 antibody from US20190309064) VH: EVQLLESGGGLVQPGGSLRLSCAASGFTFSNYYMAWVRQAPGKGLEWVSSLTNSGGSTYYADSVKGRFTISRDNSKNTLYLQMNSLRAEDTAVYYCTREWAGSGYFDYWGQGTLVTVSS VL: DIQMTQSPSSLSASVGDRVTITCKASQNVGNNLAWYQQKPGKAPKLLIYYTSNRFTGVPSRFSGSGSGTDFTLTISSLQPEDFATYYCQRIYNSPWTFGQGTKLEIK | – | – | 6750 MFI | 21 fold | – | – | – | – | – | – | – | –
14D3 (antibody, V domains shown) VH: EVKLLEFGGGLVQPGGSMRLSCAASGFTFTDFYMNWIRQPAGRAPEWLGLIRNKTKGYTTEYNRSVKGRFTISRDNTQNMLYLQMNSLRPEDTATYYCARIGVNNGGSLDYWGQGVMVTVSS VL: DILIIQSPASLTVSAGARVTMSCKSSQSLLYSENNQDYLAWYQQKPGQFPKLLIYGASNRHTGVPDRFTGSGSGTDFTLTISSVQAEDLADYYCEQTYSYPYTFGAGTKLELK | – | – | – | – | 0.96 ratio | – | – | – | – | – | – | –
EOS006176 (antibody, V domains shown) VH: EVQLLESGGGLVQPGGSLRLSCAASGFTFSTHAMTWVRQAPGKGLEWVSAISANAGKTYYADSVKGRFTISRDNSKNTLYLQMNSLRAEDTAVYYCASLRGGYEVGPTFDSWGQGTLVTVSS VL: not shown | 2.65 fold | 4.05 nM | 6340 MFI | 15 fold | 0.6 ratio | 2.7 fold | 388 fold | 20400 MFI | 3.4 fold | 13.1 fold | – | –
EOS006178 (antibody, V domains shown) VH: EVQLLESGGGLVQPGGSLRLSCAASGFTFSNYGMGWVRQAPGKGLEWVSAISANAGKTYYADSVKGRFTISRDNSKNTLYLQMNSLRAEDTAVYYCASLRGGYEVGPTFDPWGQGTLVTVSS VL: not shown | 2.51 fold | 3.89 nM | 6790 MFI | 15.8 fold | 0.64 ratio | 2.1 fold | 334 fold | 19700 MFI | 2.4 fold | 5.4 fold | – | –
Ab52 (antibody, V domains shown, benchmark anti-TREM2 antibody from WO2016023019A2) VH: QVQLVQSGAEVKKPGASVKVSCKASGYTFTSYYIHWVRQAPGQGLEWMGIINPSGGSTSYAQKFQGRVTMTRDTSTSTVYMELSSLRSEDTAVYYCAREADDSSGYPLGLDVWGQGTMVTVSS VL: EIVMTQSPATLSVSPGERATLSCRASQSVSSNLAWYQQKPGQAPRLLIYGASTRATGIPARFSGSGSGTEFTLTISSLQSEDFAVYYCQQVNSLPPTFGGGTKVEIK | – | – | 8810 MFI | 33.6 fold | – | – | 602 fold | 25500 MFI | – | – | – | –
EOS006181 (antibody, V domains shown) VH: EVQLVESGGGLVQPGRSLRLSCTASGFTFDDHAMSWFRQAPGKGLEWVGFIGSKAYGGTTEYTASVKGRFTISRDGSKSIAYLQMNSLKTEDTAVYYCARGKRYSYTYWTPAFDVWGQGTMVTVSS VL: DIQMTQSPSSLSASVGDRVTITCQASQDITNYLNWYQQKPGKAPKLLIYDASNLETGVPSRFSGSGSGTDFTFTISSLQPEDIATYYCQQYDSYLTFGGGTKVEIK | 2.84 fold | 1.09 nM | 4690 MFI | 17.4 fold | 0.69 ratio | 3.5 fold | 251 fold | 11900 MFI | 4.8 fold | 9.3 fold | 0.28 nM | –
EOS006163 (antibody, V domains shown) VH: QVQLVQSGAEVKKPGSSVKVSCKASGGTFAQYAISWVRQAPGQGLEWMGVIIPDSGTANYAQKFQGRVTITADESTSTAYMELSSLRSEDTAVYYCARTQENTIFDIWGQGTMVTVSS VL: EIVLTQSPATLSLSPGERATLSCRASQSVSSYLAWFQQKPGQAPRLLIYDASNRATGIPARFSGSGSGTDFTLTISSLEPEDFAVYYCQQDYEWPITFGGGTKVEIK | 0.701 fold | – | – | – | 0.42 ratio | 2.7 fold | 395 fold | 17700 MFI | 5.1 fold | 13 fold | 0.169 nM | 0.15 nM
EOS006171 (antibody, V domains shown) VH: QVQLVESGGGLVKPGGSLRLSCAASGFTFSDYYMSWIRQAPGKGLEWVSYISSSGSTIYYADSVKGRFTISRDNAKNSLYLQMNSLRAEDTAVYYCARLGGYYSLGPMDVWGQGTTVTVSS VL: EIVLTQSPATLSLSPGERATLSCRASQSVSSYLAWYQQKPGQAPRLLIYDASNRATGIPARFSGSGSGTDFTLTISSLEPEDFAVYYCQQDSAFPFTFGGGTKVEIK | 2.4 fold | 9.7 nM | – | – | 0.46 ratio | 6.6 fold | 495 fold | 13400 MFI | 4.3 fold | – | – | 2.8 nM

From patent US20250282868A1 (ITEOS BELGIUM, published 2025)
